What was measured:
[1] = biological target: BRG1 AT-BD P1456L (human, UniProt P51532 1434-1569, P1456L); test: BLI
[2] = biological target: BRG1 AT-BD R1502H (human, UniProt P51532 1434-1569, R1502H); test: BLI
BRG1 AT-BD R1502H, sequence (P51532 1434-1569 R1502H): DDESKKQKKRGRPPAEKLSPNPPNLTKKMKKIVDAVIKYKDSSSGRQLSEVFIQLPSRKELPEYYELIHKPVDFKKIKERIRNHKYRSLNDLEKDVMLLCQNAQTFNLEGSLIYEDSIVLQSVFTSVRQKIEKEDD

BRG1 AT-BD P1456L, sequence (P51532 1434-1569 P1456L): as the sequence (P51532 1434-1569 R1502H) above, with P23L, H69R counted along it

B1: biotinylated SELEX-DNA (dsDNA)
DNA 1: CCTCAATTAAATCTC
DNA 2: GAGATTTAATTGAGG
Question: What does the source list for B1?
Answer: Kd [1]: 1200 ± 100 nM; Kd [2]: 2400 ± 200 nM

Source: article PMC7350285
